The values that follow come from the RNAGym collection of RNA variant scans (doi:10.7554/elife.80360).

Sequences and labels used below:
B1: CPEB3 Ribozyme (parent)
chain: GGGGGCCACAGCAGAAGCGUUCACGUCGCGGCCCCUGUCAGAUUCUGGUGAAUCUGCGAAUUCUGCUGU

The variants in the data set derive from B1. In words: self-cleavage, relative activity (ratio to wild type); higher = more cleavage; co-transcriptional.
Regarding GGGGGCCACAGCAGAAGCGUUCACGUCGCGGCCCUUGUCAGAUUCUGGUGCAUCUGCGAAUUCUGCUGU [C35U A51C], the self-cleavage came out at 0.958.

GGGGGCCACAGCAGAAGCGUUCACGUCGCGGCCCUUGUCAGAUUCUGGUGGAUCUGCGAAUUCUGCUGU [C35U A51G]: the self-cleavage turned out to be 0.904. GGGGGCCACAGCAGAAGCGUUCACGUCGCGGCCCUUGUCAGAUUCUGGUGUAUCUGCGAAUUCUGCUGU [C35U A51U]: the self-cleavage stood at 0.904. With GGGGGCCACAGCAGAAGCGUUCACGUCGCGGCCCUUGUCAGAUUCUGGUGAAUCUGCGAAUUCUGAUGU [C35U C66A] the figure was 0.828; with GGGGGCCACAGCAGAAGCGUUCACGUCGCGGCCCGUGUCAGAUUCUGGUGAAUCUGCGAAUUCUUCUGU [C35G G65U], 0.223.

For the variant GGGGGCCACAGCAGAAGCGUUCACGUCGCGGCCCGUGUCAUAUUCUGGUGAAUCUGCGAAUUCUGCUGU [C35G G41U], the self-cleavage worked out at 0.341.

Take GGGGGCCACAGCAGAAGCGUUCACGUCGCGGCCCGUGUCAGAUUCUGGUGAAUGUGCGAAUUCUGCUGU [C35G C54G]: the self-cleavage was determined as 0.348. The result for GGGGGCCACAGCAGAAGCGUUCACGUCGCGGCCCGUAUCAGAUUCUGGUGAAUCUGCGAAUUCUGCUGU [C35G G37A] reads 0.219.

GGGGGCCACAGCAGAAGCGUUCACGUCGCGGCCCGUUUCAGAUUCUGGUGAAUCUGCGAAUUCUGCUGU [C35G G37U]: the self-cleavage was determined as 0.257. The result for GGGGGCCACAGCAGAAGCGUUCACGUCGCGGCCCGUCUCAGAUUCUGGUGAAUCUGCGAAUUCUGCUGU [C35G G37C] reads 0.206; that for GGGGGCCACAGCAGAAGCGUUCACGUCGCGGCCCUUGUCAGAUUCUGGUGAAUCUGCGAAUUGUGCUGU [C35U C63G], 0.588; that for GGGGGCCACAGCAGAAGCGUUCACGUCGCGGCCCUUGUCAGAUUCUGGUGAAUCUGCGAAUUUUGCUGU [C35U C63U], 0.954. With GGGGGCCACAGCAGAAGCGUUCACGUCGCGGCCCUUGUCAGAUUCUGGUGAAUCUGCGAAUUAUGCUGU [C35U C63A] the figure was 0.77; with GGGGGCCACAGCAGAAGCGUUCACGUCGCGGCCCGUGUCAGAUUCUGGUGAAUCUGCGAAAUCUGCUGU [C35G U61A], 0.33; with GGGGGCCACAGCAGAAGCGUUCACGUCGCGGCCCGUGUCAGAUUCUCGUGAAUCUGCGAAUUCUGCUGU [C35G G47C], 0.634.

Turning to GGGGGCCACAGCAGAAGCGUUCACGUCGCGGCCCGUGUCAGAUUCUUGUGAAUCUGCGAAUUCUGCUGU [C35G G47U], the self-cleavage came out at 0.553. With GGGGGCCACAGCAGAAGCGUUCACGUCGCGGCCCUUGUCGGAUUCUGGUGAAUCUGCGAAUUCUGCUGU [C35U A40G] the figure was 0.914; with GGGGGCCACAGCAGAAGCGUUCACGUCGCGGCCCGUGUCAGAUUCUGGUGAAUCUGCUAAUUCUGCUGU [C35G G58U], 0.375; with GGGGGCCACAGCAGAAGCGUUCACGUCGCGGCCCGUGUCAGAUUCUGGUGAAUCUGCCAAUUCUGCUGU [C35G G58C], 0.295. Take GGGGGCCACAGCAGAAGCGUUCACGUCGCGGCCCGUGACAGAUUCUGGUGAAUCUGCGAAUUCUGCUGU [C35G U38A]: the self-cleavage came to 0.417. The result for GGGGGCCACAGCAGAAGCGUUCACGUCGCGGCCCGUGGCAGAUUCUGGUGAAUCUGCGAAUUCUGCUGU [C35G U38G] reads 0.178; that for GGGGGCCACAGCAGAAGCGUUCACGUCGCGGCCCGUGUCAGAUUCUGGUGAAUCUGGGAAUUCUGCUGU [C35G C57G], 0.212; that for GGGGGCCACAGCAGAAGCGUUCACGUCGCGGCCCGUGUCAGAUUCUGGUGAAUCUGAGAAUUCUGCUGU [C35G C57A], 0.243. Take GGGGGCCACAGCAGAAGCGUUCACGUCGCGGCCCGUGUCAGAUUCUGGUGAAUCUGCGAAUUCUGCUGC [C35G U69C]: the self-cleavage came out at 0.77. With GGGGGCCACAGCAGAAGCGUUCACGUCGCGGCCCGUGUCAGAUUCUGGUGAAUCUGCGAAUUCUGCUGG [C35G U69G], the self-cleavage came to 0.545. With GGGGGCCACAGCAGAAGCGUUCACGUCGCGGCCCGUGUCAGAUUCUGGUGAAUCUGCGAAUUCUGCUGA [C35G U69A] the figure was 0.543; with GGGGGCCACAGCAGAAGCGUUCACGUCGCGGCCCUUGUCAGCUUCUGGUGAAUCUGCGAAUUCUGCUGU [C35U A42C], 0.81. For GGGGGCCACAGCAGAAGCGUUCACGUCGCGGCCCUUGUCAGUUUCUGGUGAAUCUGCGAAUUCUGCUGU [C35U A42U], the self-cleavage stood at 0.907.

On to GGGGGCCACAGCAGAAGCGUUCACGUCGCGGCCCUUGUCAGGUUCUGGUGAAUCUGCGAAUUCUGCUGU [C35U A42G], for which the self-cleavage amounted to 0.943. On to GGGGGCCACAGCAGAAGCGUUCACGUCGCGGCCCGUGUCAGAUUCUGGUGAAUCUGCGAGUUCUGCUGU [C35G A60G], for which the self-cleavage turned out to be 0.239. With GGGGGCCACAGCAGAAGCGUUCACGUCGCGGCCCGUGUCAGAUUCUGGUGAAUCUGCGAUUUCUGCUGU [C35G A60U] the figure was 0.217; with GGGGGCCACAGCAGAAGCGUUCACGUCGCGGCCCUUGUCAGAUUCUGGUGAAUCUGAGAAUUCUGCUGU [C35U C57A], 0.323. For GGGGGCCACAGCAGAAGCGUUCACGUCGCGGCCCGUGUAAGAUUCUGGUGAAUCUGCGAAUUCUGCUGU [C35G C39A], the self-cleavage was 0.362.

Take GGGGGCCACAGCAGAAGCGUUCACGUCGCGGCCCUUGUCAUAUUCUGGUGAAUCUGCGAAUUCUGCUGU [C35U G41U]: the self-cleavage stood at 0.745. Consider GGGGGCCACAGCAGAAGCGUUCACGUCGCGGCCCUUGUCACAUUCUGGUGAAUCUGCGAAUUCUGCUGU [C35U G41C], for which the self-cleavage worked out at 0.632. Regarding GGGGGCCACAGCAGAAGCGUUCACGUCGCGGCCCGUGUCAGAUUCUGGCGAAUCUGCGAAUUCUGCUGU [C35G U49C], the self-cleavage turned out to be 0.513. GGGGGCCACAGCAGAAGCGUUCACGUCGCGGCCCGUGUCAGAUUCUGGUGAAUCUGCGAAUUAUGCUGU [C35G C63A]: the self-cleavage came to 0.341.

Consider GGGGGCCACAGCAGAAGCGUUCACGUCGCGGCCCGUGUCAGAUUCUGUUGAAUCUGCGAAUUCUGCUGU [C35G G48U], for which the self-cleavage is 0.491. The result for GGGGGCCACAGCAGAAGCGUUCACGUCGCGGCCCGUGUCAGAUUCUGAUGAAUCUGCGAAUUCUGCUGU [C35G G48A] reads 0.452.
